Experimental data reported in paper PMC1894825.

System: Lsr2 (Mycobacterium tuberculosis H37Rv)
Assay: EMSA

Substance | Kd [nM]
16S rRNA gene 200-bp amplicon | 1000
PiniBAC 227-bp amplicon | 1000
